Results on six molecules are retold here after patent publication US20260193335A1 (ZOETIS SERVICES, published 2026).

Where a chain is given by its changes, count along the chain named. Names may count otherwise. Like-named read-outs stand apart in the source and are kept apart here.

The target in assay [1] is T1, Feline FcRn (complex of FcRn-α subunit and β-microglobulin, C-terminal His tag) (feline, UniProt A0ABI7ZNY9 23-296; Q5MGS7 21-118).
T1 construct: treated here as one molecule
In words: SPR Biacore, FcRn amine-coupled on CM5, pH 7.2; pH 7.2; Table 2 run (FcRn amine-coupled on CM5). How it is done: (§1) Feline FcRn was isolated, prepared and mutant Fc IgGs were assayed against feline FcRn according to Strietzelg et. al. Standard RACE PCR was used to amplify feline FcRn-α subunit and β-microglobulin. FcRn-α subunit and β-microglobulin were co-transfected into HEK 293 cells and the FcRn complex was purified by IMAC affinity purification via the c-terminal His tag. KD's were measured by Biacore 3000 or Biacore T200 (GE Healthcare, Pittsburgh, PA, USA) using a CM5 sensor chip.
(§2) FcRn was immobilized on the surface of the sensor using the standard amine immobilization method to reach the desired surface density. HBS-EP was used as the immobilization running buffer and 10 mM MES; 150 mM NaCl; 0.005% Tween20; 0.5 mg/mL BSA; pH6 and pH7.2 and PBS; 0.005% Tween20; 0.5 mg/mL BSA; pH7.4 were used for method running buffers and titrations. Fc mutant IgGs were flowed over receptor surfaces and affinity was determined using Scrubber2 software analysis (BioLogic Software Pty, Ltd., Campbell, Australia) or T200 evaluation software (Table 2). Blank runs containing buffer only were subtracted out from all runs. Flow cells were regenerated using 50 mM Tris pH8. Runs were performed at 15° C.

Assay [2] has as its target T1, Feline FcRn (complex of FcRn-α subunit …). In words: SPR Biacore, biotin-FcRn on SA chip, pH 6; pH 6; Table 5A run (biotin-FcRn on SA chip), ID 88. How it is done: Feline FcRn was isolated, prepared and mutant Fc IgGs were assayed against feline FcRn according to Strietzel et. al., discussed above. Standard PCR was used to amplify feline FcRn-α subunit and β-microglobulin. FcRn-α subunit and β-microglobulin were co-transfected into HEK 293 cells and the FcRn complex was purified by IMAC affinity purification via the c-terminal His tag. FcRn complex was biotin labeled through BirA enzymatic biotinylatoin reaction. KD's were measured by Biacore T200 (GE Healthcare, Pittsburgh, PA, USA) or Biacore 8K (Cytiva, Marlborough, MA, USA) using a SA sensor chip.
FcRn was captured on the surface of the sensor using a modified SA capture method. 10 mM MES; 150 mM NaCl; 0.005% Tween20; 0.5 mg/mL BSA; pH6 was used as capture, method running buffer and titrations. 1×HBS-P, 0.5 mg/mL BSA; pH7.4 was also used for method running buffer and titrations. Fc mutant IgGs were flowed over receptor surfaces and affinity was determined using T200 evaluation software or Biacore Insight Evaluation software. Blank runs containing buffer only were subtracted out from all runs. Flow cells were regenerated using 50 mM Tris pH8 or pH9. Runs were performed at 15° C.

The target of assay [3] is T2, NGF (target of felinized anti-NGF antibodies mAb2 and mAb3).
T2 chain: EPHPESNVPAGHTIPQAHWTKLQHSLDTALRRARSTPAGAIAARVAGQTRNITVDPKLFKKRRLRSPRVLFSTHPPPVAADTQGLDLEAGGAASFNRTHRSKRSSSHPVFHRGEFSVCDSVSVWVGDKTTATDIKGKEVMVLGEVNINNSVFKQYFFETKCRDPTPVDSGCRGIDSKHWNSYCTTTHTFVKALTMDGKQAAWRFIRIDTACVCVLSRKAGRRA
Nature of the assay: SPR Biacore T200, target amine-coupled, 15 C. How it is done: Affinity for each mAb was assessed by Biacore and the IC50 was determined via a suitable cell based potency assay.
Flow cell 1 was used as an internal reference to correct running buffer effects. Antibody binding was measured at 15° C. with a contact time of 250 s and flow rate of 30 μl/min. The dissociation period was 300 s. Regeneration was performed with regeneration buffers (10 mM Glycine pH1.5 and 10 mM NaOH) and flow rate at 20 μl/min for 60 s each. Running/dilution buffer (1×HBS-EP, GE Healthcare, BR-1006-69, 10× including 100 mM HEPES, 150 mM NaCl, 30 mM EDTA and 0.5% v/v surfactant P20, pH7.4, 1:10 in filtered MQ H2O) was used as negative control at the same assay format.
Data were analyzed with Biacore T200 Evaluation software by using the method of double referencing. The resulting curve was fitted with the 1:1 binding model. No differences in binding affinities or IC50 were observed between wild-type and 5434 and 5428 mutant IgGs (Table 1).

Assay [4] concerns the target T1, Feline FcRn (complex of FcRn-α subunit …). In words: SPR Biacore, FcRn amine-coupled on CM5, pH 6; pH 6; Table 2 run (FcRn amine-coupled on CM5). How it is done:
as §1, §2

Assay [5] deals with T2, NGF (target of felinized anti-NGF …). In words: cell-based or functional assay.
Assay [6] addresses T1, Feline FcRn (complex of FcRn-α subunit …). In words: SPR Biacore, FcRn amine-coupled on CM5, pH 6. How it is done: as §1, §2
For assay [7] the target is unchanged. Nature of the assay: SPR Biacore, FcRn amine-coupled on CM5, pH 7.2. How it is done:
as §1, §2

For assay [8] the target is unchanged. Nature of the assay: SPR Biacore, biotin-FcRn on SA chip, pH 6. The method, boiled down: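 Feline FcRn α/β-microglobulin complex, expressed in HEK 293 cells, His-tag purified and BirA-biotinylated, was captured on an SA chip. Fc mutant IgGs flowed over at 15° C in MES/NaCl/Tween20/BSA at pH 6, or HBS-P/BSA at pH 7.4. KD from buffer-blank-subtracted runs; regeneration with 50 mM Tris pH 8 or 9.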

In assay [9] the target is NGF (target of felinized anti-NGF antibodies mAb2 and mAb3). In words: cell-based or functional assay. This is another data set of the same source.
Assay [10] has the same target. In words: SPR Biacore T200, target amine-coupled, 15 C. The source holds these as a separate data set.
Assay [11] addresses Feline FcRn (complex of FcRn-α subunit and β-microglobulin, C-terminal His tag) (feline). In words: SPR Biacore, FcRn amine-coupled on CM5, pH 7.2.
Assay [12] has the same target. In words: SPR Biacore, FcRn amine-coupled on CM5, pH 6.
In assay [13] the target is TGFβ (target of felinized anti-TGFβ antibody mAb6). Nature of the assay: cell-based or functional assay.
For assay [14] the target is unchanged. Nature of the assay: SPR Biacore T200, target amine-coupled, 15 C.

Sequence of Feline FcRn (complex of FcRn-α subunit and β-microglobulin, C-terminal His tag) (feline) (chain, as listed by the source, chain 1 of 2): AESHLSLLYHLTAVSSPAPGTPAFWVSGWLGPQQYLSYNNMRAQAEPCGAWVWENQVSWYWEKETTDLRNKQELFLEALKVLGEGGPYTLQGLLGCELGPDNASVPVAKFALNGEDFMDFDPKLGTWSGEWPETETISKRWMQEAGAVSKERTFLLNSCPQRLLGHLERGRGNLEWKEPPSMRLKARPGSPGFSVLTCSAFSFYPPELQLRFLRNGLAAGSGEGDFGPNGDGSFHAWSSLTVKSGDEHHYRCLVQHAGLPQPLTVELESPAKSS
Sequence of Feline FcRn (complex of FcRn-α subunit and β-microglobulin, C-terminal His tag) (feline) (Q5MGS7 21-118, chain 2 of 2): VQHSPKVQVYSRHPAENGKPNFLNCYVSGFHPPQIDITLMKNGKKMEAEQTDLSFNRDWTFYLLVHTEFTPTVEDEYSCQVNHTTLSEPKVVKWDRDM

B1: mAb3 (felinized anti-NGF antibody ZTS-768) WT, feline IgG1a (antibody)
heavy: DVQLVESGGDLVKPGGSLRLTCVASGFTYSNYWMHWVRQAPGKGLQWVARIDPYGGGTKHNEKFKRRFTISRDNAKNTLYLQMNSLKTEDTATYYCVRSGYDYYFDVWGQGTLVTVSSASTTAPSVFPLAPSCGTTSGATVALACLVLGYFPEPVTVSWNSGALTSGVHTFPAVLQASGLYSLSSMVTVPSSRWLSDTFTCNVAHPPSNTKVDKTVRKTDHPPGPKPCDCPKCPPPEMLGGPSIFIFPPKPKDTLSISRTPEVTCLVVDLGPDDSDVQITWFVDNTQVYTAKTSPREEQFNSTYRVVSVLPILHQDWLKGKEFKCKVNSKSLPSPIERTISKAKGQPHEPQVYVLPPAQEELSRNKVSVTCLIKSFHPPDIAVEWEITGQPEPENNYRTTPPQLDSDGTYFVYSKLSVDRSHWQRGNTYTCSVSHEALHSHHTQKSLTQSPGK
light: EIQMTQSPSSLSASPGDRVTITCRASENIYSFLAWYQQKPGKVPKLLIYNANTLAEGVPSRFSGSGSGTDFTLTISSLEPEDAATYYCQHHFGTPFTFGSGTKLEIKRSDAQPSVFLFQPSLDELHTGSASIVCILNDFYPKEVNVKWKVDGVVQNKGIQESTTEQNSKDSTYSLSSTLTMSSTEYQSHEKFSCEVTHKSLASTLVKSFQRSECQRE
notes: The same holds for all IgG1a variants of mAb3; also called mAb3 WT; mAb3 ID No. 88
On to B1, for which the Kd was 8630 nM in assay [1], 26 nM in assay [2], 0.000582 nM in assay [3] and 2.95 nM in assay [4]. Moreover, in [5], the “IC50 (cell based potency assay)” value is 0.036 nM.

B2: mAb3 (felinized anti-NGF antibody ZTS-768) S434H, feline IgG1a (antibody)
heavy: B1 heavy with S440H
light: B1 light
notes: also called mAb3 S434H; mAb3 ID No. 00
For the molecule B2, the Kd in [6] stood at 1.02 nM; in assay [7], 0.524 nM; in [8], 2.6 nM; in [3], 0.00132 nM.

B3: mAb2 (felinized anti-NGF antibody) wild-type, feline IgG1a (antibody, part only; not given: Anti-NGF heavy and light variable domains, part only)
heavy, part: ASTTAPSVFPLAPSCGTTSGATVALACLVLGYFPEPVTVSWNSGALTSGVHTFPAVLQASGLYSLSSMVTVPSSRWLSDTFTCNVAHPPSNTKVDKTVRKTDHPPGPKPCDCPKCPPPEMLGGPSIFIFPPKPKDTLSISRTPEVTCLVVDLGPDDSDVQITWFVDNTQVYTAKTSPREEQFNSTYRVVSVLPILHQDWLKGKEFKCKVNSKSLPSPIERTISKAKGQPHEPQVYVLPPAQEELSRNKVSVTCLIKSFHPPDIAVEWEITGQPEPENNYRTTPPQLDSDGTYFVYSKLSVDRSHWQRGNTYTCSVSHEALHSHHTQKSLTQSPGK
Turning to B3, the IC50 (cell based potency assay) in assay [9] came to 0.69 nM. For the same molecule, the Kd in assay [10] was determined as 0.023 nM; in assay [11], 380 nM; in [12] it was 25 nM.

B4: mAb2 (felinized anti-NGF antibody) S428L, feline IgG1a (antibody, part only; not given: Anti-NGF heavy and light variable domains, part only)
heavy, part: B3 heavy, part with S316L
The molecule B4 had an IC50 (cell based potency assay) in assay [9] of 0.58 nM. The dissociation constant Kd in assay [10] was 0.008 nM; in [11], 60 nM; in assay [12] it was 1.51 nM.

B5: mAb6 (felinized anti-TGFβ antibody of Tables 1 and 2) S428L, feline IgG1a (antibody, part only; not given: Anti-TGFβ variable domains, antibody unnamed, part only)
heavy, part: B3 heavy, part with S316L
Consider B5, for which the IC50 (cell based potency assay) in assay [13] was 10 nM. Further, the Kd was determined as 0.0843 nM in assay [14], 230 nM in assay [11] and 15 nM in assay [12].

B6: mAb6 (felinized anti-TGFβ antibody of Tables 1 and 2) wild-type, feline IgG1a (antibody, part only; not given: Anti-TGFβ variable domains, antibody unnamed, part only)
heavy, part: B3 heavy, part
Molecule B6 came in with an IC50 (cell based potency assay) in [13] of 9 nM. For the same molecule, the equilibrium dissociation constant (Kd) in assay [14] stood at 0.00375 nM; in [12], 120 nM.
